Assay results from PMC7423246, “A Peptide–Lectin Fusion Strategy for Developing a Glycan Probe for Use in Various Assay Formats” (Chemosensors (Basel, Switzerland), 2019).

Target: HIV coat protein gp120 (oligomannose bearing) (HIV (Human Immunodeficiency Virus), UniProt P04578 33-511, high-mannose-type N-glycans (oligomannose), sites not stated)
Experiment: MST; NT-647 labeled PFA held constant, serial dilution of gp120, in 0.1% PBST; 'effective' binding affinity
Conditions: both partners purified

B1: NT-647 labeled PFA (natural protein)
chain: MSKYAVANQWGGSSAPWHPGGTWVLGARDNQNVVAIEIKSGDGGKSFTGTMTYAGEGPIGFKAQRTGQNQYNVENQWGGNDAPWHPGGKWVIGGRDNQNVIALSVTSSDGGKNLSGTNTYANEGPIGFRGQIEVSHPQAPF
modifications: NT-647 fluorophore on amines (amine-reactive NT-647-NHS labelling kit)
- Kd: 4.1 ± 1.4 nM
